Results reported in publication PMC4844672 (Nature Communications, 2016).
One block for each molecule: values may come before it.

Columns and labels:
[1] = biological target: GbLFY-SAM (N-terminal SAM domain of Ginkgo biloba LEAFY, wild type) (Ginkgo biloba); experiment: SEC-MALS; SEC-MALLS on Superdex-200 10/300GL in buffer A, 20 °C, 0.5 ml/min; 50 µl at ~4.5 mg/ml injected; [RE+TE] is an equimolar mixture of the TE and RE mutants
[2] = biological target: T1, AtLFY (Arabidopsis thaliana, UniProt Q00958 1-420); experiment: EMSA; 500 nM; behaves like GbLFYΔ; EMSA: 20 mM Tris-HCl pH 7.5, 150 mM NaCl, 1% glycerol, 0.25 mM EDTA, 2 mM MgCl2, 0.01% Tween-20, 3 mM TCEP, 28 ng/ml fish sperm DNA, 10 nM probe, 25-500 nM prot
T1 sequence: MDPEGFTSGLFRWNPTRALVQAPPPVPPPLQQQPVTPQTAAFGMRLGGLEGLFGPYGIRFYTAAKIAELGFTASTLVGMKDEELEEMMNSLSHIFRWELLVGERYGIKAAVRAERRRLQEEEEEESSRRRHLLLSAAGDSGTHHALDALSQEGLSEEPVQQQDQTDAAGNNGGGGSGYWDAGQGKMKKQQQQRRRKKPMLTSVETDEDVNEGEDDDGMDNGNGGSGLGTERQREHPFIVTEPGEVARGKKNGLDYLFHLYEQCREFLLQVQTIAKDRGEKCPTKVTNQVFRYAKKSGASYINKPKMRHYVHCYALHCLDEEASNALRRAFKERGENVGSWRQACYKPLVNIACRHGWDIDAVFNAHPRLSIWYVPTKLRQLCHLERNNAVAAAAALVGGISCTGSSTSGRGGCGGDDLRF

[3] = biological target: the molecule itself; experiment: SEC; Superdex-200 10/300GL in buffer A, 4 °C, calibrated with protein standards; molecular mass estimated at different protein concentrations

stoichiometry N [1]: < 8 monomers
Molecule: GbLFY-SAM (N-terminal SAM domain of Ginkgo biloba LEAFY, wild type) (domain or fragment)

B1: AGI-II (dsDNA)
DNA 1: CGTTTAAATTTAATCCAATGGTTACAATTTTAATACTATCAAATGTCTATTGGATTTATACCCAATGTGTTAATGGGTTG
DNA 2: CAACCCATTAACACATTGGGTATAAATCCAATAGACATTTGATAGTATTAAAATTGTAACCATTGGATTAAATTTAAACG
binding result [2]: binds

B2: AtLFY-SAM (SAM domain of A. thaliana LEAFY) (domain or fragment, Arabidopsis thaliana, UniProt Q00958 38-151, looked up)
chain: QTAAFGMRLGGLEGLFGPYGIRFYTAAKIAELGFTASTLVGMKDEELEEMMNSLSHIFRWELLVGERYGIKAAVRAERRRLQEEEEEESSRRRHLLLSAAGDSGTHHALDALSQ
notes: LEAFY (LFY) of Arabidopsis thaliana, residues 38-151 of the A. thaliana LFY cDNA (plasmid pETH201, vector pETM-11); also called SAM domain of A. thaliana LFY; source: E. coli Rosetta2 (DE3), purified (Ni-Sepharose, TEV cleavage, Superdex-200); not shown: 6 x His, N-terminal, cleaved
binding result [3]: binds
